Assay results from PMC7509637 (Advanced Science, 2020).
Several values for one entry are separate records, joined by “and”; a condition that tells them apart may be missing. Equal entries are not always repeated. Entries after “also recorded” stand apart in the source; their conditions may differ.

B1: FapCS: FapC seeds obtained by sonication of mature FapC fibrils (P. aeruginosa) (protein)
chain: GNEGGWHPPKPNPQSNNKGGATALVVDTQQNYNNKVSNFGTLNNASVSGSIKDASGNVGVNVAAGDNNQQANAAALASADASFVFGTATASTSVLQSGYGNTLNNYSNPNTASLSNSANNVSGNLGVNVAAGNFNQQKNDLAAAVSNGQYSTAGSAASQTSTGNTTVNSANYAYGGTYVSLKLNADGSYKGTSDQIGDVYLDTWEGQTHPGGSNTGHIDVDSQAQGAKDLNHDGGAFAFKEKGDVDLKGTVSGFIPAIVGFKTPVTNNASLSNSLQNVSGNVGVNIAAGGGNQQSNSLSIAAGCSSCPAGGESLGF

Experiments:
Aβ [1] = target: T1, Aβ (Homo sapiens, UniProt P05067); assay: Circular dichroism spectroscopy, secondary structure; conditions: 37 °C, CD; for β-sheet content: Contin/reference set 4, n = 3; for random coil content: n = 3
T1 construct: purchased Anaspec Inc
Description: Solutions of 200 µL, at similar molar ratios as for ThT assay, were prepared and incubated at 37 °C. CD spectra for different samples at 0, 12 and 48 h were measured with a CD spectrophotometer (Jasco) from 190 to 240 nm (1 nm step size). The percentage secondary structure was calculated by the CD data via Dichroweb analysis with parameters of Contin/reference set 4.^[ ^95 ^]

adult zebrafish brain [2] = assay: Synaptophysin IHC in brain of adult zebrafish; format: in vivo, zebrafish (AB, Danio rerio); conditions: for synaptophysin-positive synapses/cells (in words): n = 3
Description: (§1) Adult zebrafish (10 months) were employed for the study. Prior to microinjection, adult zebrafish were anesthetized by placing them in a beaker filled with ice‐chilled tricaine (0.01% in Holtfreter's buffer) for 20 s. The samples of Aβ alone and Aβ with FapCS or bacterial biofilm fragments were injected to the cerebroventricular space of adult fish with a 1 µL Hamilton glass syringe. The concentration of the Aβ peptide was 40 × 10^−6 M (in PBS, pH 7.4) while FapCS or biofilm fragments were included at a 10:1 ratio (Aβ:FapCS or biofilm fragments). The needle penetrated between left and right telencephalon for not more than 1 mm and injection volume was 1 µL. The syringe was washed with ethanol and PBS in between the injections. The injections were made under a stereomicroscope and fish were held in place with forceps. After microinjection, the fish was placed back in the water tank for recovery.
(§2) The deposition of Aβ, depletion of synaptophysin positive cells and TUNEL assay were measured by IHC. The adult fish, at 4 d or 2 weeks postinjection with Aβ and Aβ with FapCS or biofilm fragments, were euthanized by placing in ice‐chilled tricaine (0.4% in Holtfreter's buffer) for 1 min. The head of the fish was separated at pectoral fin point with a sharp blade and fixed in paraformaldehyde as described in the “Animal husbandry and ethics statement” section. The fixed heads were dehydrated by dipping in gradual concentration of ethanol, i.e., 20%, 40%, 60%, 80%, and 100% with 10 min at each step. The heads were treated with 20% sucrose overnight, mounted with Tissue Trek OCT mounting medium at −20 °C. The heads were then sectioned into […] section with a cryostat. The sections were mounted on a gelatinized glass slide and immunostained with antibodies. The sections were dried, washed thrice in PBS (pH 7.4), and TritonX‐100 (0.05% in PBS) for 5 min each. […] The sections were imaged by a fluorescence microscope and fluorescence intensities were measured from the images with Fiji ImageJ analysis.

adult zebrafish brain [3] = assay: IHC for Aβ deposition in brain of adult zebrafish; format: in vivo, zebrafish (AB, Danio rerio); conditions: two days postinjection (so in the source)
Description: Adult zebrafish (10 months) were employed for the study. Prior to microinjection, adult zebrafish were anesthetized by placing them in a beaker filled with ice‐chilled tricaine (0.01% in Holtfreter's buffer) for 20 s. […] The needle penetrated between left and right telencephalon for not more than 1 mm and injection volume was 1 µL. The syringe was washed with ethanol and PBS in between the injections. The injections were made under a stereomicroscope and fish were held in place with forceps. After microinjection, the fish was placed back in the water tank for recovery.
The head of the fish was separated at pectoral fin point with a sharp blade and fixed in paraformaldehyde as described in the “Animal husbandry and ethics statement” section. The fixed heads were dehydrated by dipping in gradual concentration of ethanol, i.e., 20%, 40%, 60%, 80%, and 100% with 10 min at each step. The heads were treated with 20% sucrose overnight, mounted with Tissue Trek OCT mounting medium at −20 °C. The heads were then sectioned into 20 × 10^−6 M thick section with a cryostat. The sections were mounted on a gelatinized glass slide and immunostained with antibodies. The sections were dried, washed thrice in PBS (pH 7.4), and TritonX‐100 (0.05% in PBS) for 5 min each. […] The sections were imaged by a fluorescence microscope and fluorescence intensities were measured from the images with Fiji ImageJ analysis.

adult zebrafish brain [4] = assay: TUNEL assay in brain of adult zebrafish; format: in vivo, zebrafish (AB, Danio rerio); conditions: for TUNEL assay, DNA damage / cell death (in words): n = 3
Description: as §1, §2

Aβ amyloid fibrils = assay: STED microscopy of FapCS with Aβ fibrils; conditions: FapCS labeled with Alexa 647, ThT-labeled Aβ fibrils, 12 h
Description: STED microscopy was employed to study the interaction of FapCS with Aβ. FapCS was labeled with Alexa 647 NHS ester via carbodiimide coupling reaction (1:1 molar ratio) in PBS (pH 8) for a duration of 5 h. The labeled fragments were purified via centrifugal filters ([…]). Labeled FapCS was incubated with Aβ at the same molar ratio as for the ThT assay. After 12 h of incubation, the FapCS‐seeded Aβ fibrils were incubated with ThT dye (100 × 10^−6 M) for 30 min to label the Aβ backbone and then purified via centrifugal filters ([…]). A drop of 20 µL of the sample was placed on a poly‐L‐lysine coated coverslip, flipped on a glass slide and then imaged under STED microscope. Alexa and ThT fluorescence were imaged under the excitations of 647 and 488 nm and emissions of 665 and 525 nm, respectively.

Aβ fibrils = assay: AFM of fibrils, FiberApp statistical analysis; conditions: compared with the control
Description: Aβ incubated in the presence or absence of FapCS, FapC monomers, FapC fibrils or bLgS were subjected to TEM imaging. After incubation for 12 h, a drop of sample was applied on a glow‐discharged carbon‐coated copper grid. After 1 min, the sample was blotted and then negatively stained with uranyl acetate (1%) for 30 s. The dried grid was then imaged with a Technei F20 TEM at 200 kV. For AFM, a drop of sample was placed on freshly cleaved mica surface and rinsed with water after 2 min and dried with pressurized air. The sample was scanned with an AFM (Nanoscope VIII Multimode Scanning Force Microscopes, Bruker), covered with an acoustic hood to minimize the vibrational noise. Images were acquired under the tapping mode with a silicon nitride cantilever (Bruker). AFM images were processed with Nanoscope Analysis 1.5 software to flatten the background and to calculate the statistical parameters.

Aβ [5] = target: T1, Aβ; assay: Static light scattering (SLS) of Aβ fibrillar growth; format: biochemical; conditions: ratio as for ThT assay, Malvern Zetasizer Nano, n = 3
Description: Increases in the size of Aβ in the presence and absence of FapCS or bLgS were monitored by SLS. Solution of Aβ with FapCS or bLgS, at a similar ratio as for the ThT assay, was prepared and incubated. SLS measurements were performed at different time intervals using a Malvern Zetasizer Nano. The parameters were fixed at 7 for attenuator and 4.20 mm for cell position. Quartz cells with low volume capacity (100 µL) were used. The light scattering intensities (kilo counts per sec) and the refractive indices of the samples, buffer alone and toluene were measured.

[6] = FapCS alone, 4 × 10^−6 M, Figure S13

| Molecule | β-sheet content (Aβ [1]; 0 h) | random coil content (Aβ [1]; 0 h) [%] | random coil content (Aβ [1]; 12 h) [%] | β-sheet content (Aβ [1]; 48 h) | synaptophysin-positive synapses/cells (in words) (adult zebrafish brain [2]; 2 weeks postinjection) | synaptophysin-positive synapses/cells (in words) (adult zebrafish brain [2]; 4 d postinjection) | Aβ deposition in brain (in words) (adult zebrafish brain [3]) | TUNEL assay, DNA damage / cell death (in words) (adult zebrafish brain [4]; 2 weeks postinjection) | TUNEL assay, DNA damage / cell death (in words) (adult zebrafish brain [4]; 4 d postinjection) | synapse health (in words) (adult zebrafish brain [2]; [6]) | interaction with Aβ fibrils by STED (Aβ amyloid fibrils) | DNA damage / toxicity (in words) (adult zebrafish brain [4]; [6]) | rise in fibrillar diameter of Aβ upon seeding vs control (Aβ fibrils) [%] | Aβ fibrillar growth by SLS (Aβ [5]) |
| --- | --- | --- | --- | --- | --- | --- | --- | --- | --- | --- | --- | --- | --- | --- |
| amyloid beta [Aβ] | 28% and 28 ± 9% | 34 ± 6 | 28 ± 1.5 | 54% and 54 ± 4.5% | neurodegeneration of synaptophysin positive cells; also recorded: degenerate synaptophysin‐positive synapses | synaptophysin positive neuronal cells | did not render any deposition in the fish brain | neuronal cell death; also recorded: DNA damage per the TUNEL assay | negative TUNEL assay | – | – | – | – | – |
| B1 | – | – | – | – | – | – | – | – | – | Healthy synapses | adsorption of FapCS (labeled with Alexa 647) onto Aβ amyloid fibrils; also recorded: intercalation of FapCS inside the Aβ fibrils; also recorded: adsorbed onto or integrated into Aβ fibrils | no DNA damage; also recorded: non‐toxic nature | 37 | significantly more rapid Aβ fibrillar growth; also recorded: rapid growth in the size of Aβ fibrils |
